Assay [1] addresses T1, SARS-CoV-2 spike receptor-binding domain (soluble RBD, residues 319–591) (SARS-CoV-2, UniProt P0DTC2). Nature of the assay: SPR. A general note: In SPR one partner is held on a chip, and binding of the other changes the refractive index at the surface.
Assay [2] deals with T1, SARS-CoV-2 spike receptor-binding …. Nature of the assay: crystal structure.

B1: 1H2 IgG (antibody, V domains shown)
VH: QVQLQQSGGGLVQPGRSLRLSCAASGFTFDDYAMHWVRQAPGKGLEWVSGITWNSGTIGYADSVKGRFTISRDNAKNSLYLQMRSLRAEDTALYYCAKDSGRKLLWGREDYYMGVWGKGTTVTV
VL: SYELTQPPSVSVAPGKTARITCGGSNIGSKSVHWYQQKPGQAPVLVIYYDSDRPSGIPERFSGSNSGNTATLTISRVEAGDEADYYCQVWDSSSDHVVFGG
As to B1, the binding result in assay [1] was “binds”.

B2: 2A10 IgG (antibody, V domains shown)
VH: QVQLVESGGGLIQPGGSLRLSCAASEFIVSSNYMSWVRQAPGKGLEWVSLLYSGGTTYYADSVKGRFTISRDNSKNTLFLQMNSLRAEDTAMYYCARDRGPWLHDYWGQGTLVTVSS
VL: DIVMTQSPSSLSASVGDRVTITCQASQDINKYCNWYQQKPGKAPKLLIYDASNLETGVPSRFSGSGSGTDFTFTINSLQPEDIATYYCQQYDNLPPTFGGGTKVEIK
As to B2, the binding result in assay [1] is “binds”.

B3: 2A10 Fab (Fab, V domains shown)
VH: B2 VH
VL: B2 VL
For B3, in assay [2], the binding result is listed as “binds”.
